Assay results: the supplement of paper PMC9112550, “Optimization of the antimicrobial peptide Bac7 by deep mutational scanning” (BMC Biology, 2022)

Tested on: Escherichia coli TOP10
Experiment: shrunken log2 fold change of peptide-encoding DNA abundance (4.5 h post-induction vs induction); higher = less antimicrobial activity (less host growth inhibition)
Details: time post-induction: 4.5 h; library: site-saturation at positions 5, 18, 19, 20
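Note: peptides expressed intracellularly from a pBAD plasmid library in pooled LB shake-flask culture, induced with 0.3% L-arabinose, DNA abundance read by NGS, three biological replicates, DESeq2 with apeglm shrinkage.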

| Sequence | shrunken log2 fold change |
| --- | --- |
| RRIRSRPPRLPRPRPRPMRMPRP | 0.323 |
| RRIRSRPPRLPRPRPRPMRYPRP | 0.215 |
| RRIRSRPPRLPRPRPRPMSIPRP | -0.214 |
| RRIRSRPPRLPRPRPRPMSLPRP | 0.226 |
| RRIRSRPPRLPRPRPRPMTPPRP | 0.13 |
| RRIRSRPPRLPRPRPRPMTSPRP | -0.0553 |
| RRIRSRPPRLPRPRPRPMTWPRP | -0.0238 |
| RRIRSRPPRLPRPRPRPMVAPRP | 0.0774 |
| RRIRSRPPRLPRPRPRPMWSPRP | 0.284 |
| RRIRSRPPRLPRPRPRPMYLPRP | -0.0356 |
| RRIRSRPPRLPRPRPRPNDGPRP | -0.0933 |
| RRIRSRPPRLPRPRPRPNDMPRP | -0.193 |
| RRIRSRPPRLPRPRPRPNDPPRP | -0.619 |
| RRIRSRPPRLPRPRPRPNEDPRP | -0.0395 |
| RRIRSRPPRLPRPRPRPNHRPRP | -0.426 |
| RRIRSRPPRLPRPRPRPNHTPRP | -0.444 |
| RRIRSRPPRLPRPRPRPNHWPRP | -0.277 |
| RRIRSRPPRLPRPRPRPNLCPRP | -0.0929 |
| RRIRSRPPRLPRPRPRPNLPPRP | 0.247 |
| RRIRSRPPRLPRPRPRPNLQPRP | -0.141 |
| RRIRSRPPRLPRPRPRPNMNPRP | -0.573 |
| RRIRSRPPRLPRPRPRPNMRPRP | 0.43 |
| RRIRSRPPRLPRPRPRPNNTPRP | -0.574 |
| RRIRSRPPRLPRPRPRPNQWPRP | 0.0342 |
| RRIRSRPPRLPRPRPRPNRNPRP | -0.163 |

| Sequence | shrunken log2 fold change |
| --- | --- |
| RRIRSRPPRLPRPRPRPNSCPRP | -0.121 |
| RRIRSRPPRLPRPRPRPNSSPRP | -0.31 |
| RRIRSRPPRLPRPRPRPNTNPRP | -0.0164 |
| RRIRSRPPRLPRPRPRPNVLPRP | 0.105 |
| RRIRSRPPRLPRPRPRPNVTPRP | -0.0212 |
| RRIRSRPPRLPRPRPRPNVWPRP | 0.109 |
| RRIRSRPPRLPRPRPRPNYDPRP | -0.247 |
| RRIRSRPPRLPRPRPRPNYEPRP | -0.609 |
| RRIRSRPPRLPRPRPRPPCIPRP | -0.105 |
| RRIRSRPPRLPRPRPRPPDRPRP | 0.643 |
| RRIRSRPPRLPRPRPRPPEAPRP | 0.854 |
| RRIRSRPPRLPRPRPRPPELPRP | 0.629 |
| RRIRSRPPRLPRPRPRPPEWPRP | 0.263 |
| RRIRSRPPRLPRPRPRPPHMPRP | -0.0602 |
| RRIRSRPPRLPRPRPRPPHYPRP | 0.132 |
| RRIRSRPPRLPRPRPRPPIMPRP | -0.0485 |
| RRIRSRPPRLPRPRPRPPIYPRP | -0.0803 |
| RRIRSRPPRLPRPRPRPPMGPRP | -0.0142 |
| RRIRSRPPRLPRPRPRPPMHPRP | 0.25 |
| RRIRSRPPRLPRPRPRPPMVPRP | 0.131 |
| RRIRSRPPRLPRPRPRPPNTPRP | 0.158 |
| RRIRSRPPRLPRPRPRPPPWPRP | 0.651 |
| RRIRSRPPRLPRPRPRPPPYPRP | 0.337 |
| RRIRSRPPRLPRPRPRPPQCPRP | 0.115 |
| RRIRSRPPRLPRPRPRPPQRPRP | 0.451 |

| Sequence | shrunken log2 fold change |
| --- | --- |
| RRIRSRPPRLPRPRPRPPSYPRP | -0.555 |
| RRIRSRPPRLPRPRPRPPYGPRP | -0.401 |
| RRIRSRPPRLPRPRPRPQCEPRP | 0.00747 |
| RRIRSRPPRLPRPRPRPQDAPRP | 0.0464 |
| RRIRSRPPRLPRPRPRPQDIPRP | -0.296 |
| RRIRSRPPRLPRPRPRPQDYPRP | -0.356 |
| RRIRSRPPRLPRPRPRPQECPRP | -0.0587 |
| RRIRSRPPRLPRPRPRPQENPRP | -0.0522 |
| RRIRSRPPRLPRPRPRPQERPRP | -0.0153 |
| RRIRSRPPRLPRPRPRPQFDPRP | -0.00423 |
| RRIRSRPPRLPRPRPRPQFEPRP | 0.189 |
| RRIRSRPPRLPRPRPRPQFLPRP | -0.394 |
| RRIRSRPPRLPRPRPRPQFPPRP | -0.00708 |
| RRIRSRPPRLPRPRPRPQGNPRP | -0.679 |
| RRIRSRPPRLPRPRPRPQHNPRP | -0.628 |
| RRIRSRPPRLPRPRPRPQHPPRP | -0.239 |
| RRIRSRPPRLPRPRPRPQKAPRP | 0.091 |
| RRIRSRPPRLPRPRPRPQKEPRP | 0.052 |
| RRIRSRPPRLPRPRPRPQNCPRP | 0.0871 |
| RRIRSRPPRLPRPRPRPQNQPRP | -0.455 |
| RRIRSRPPRLPRPRPRPQQWPRP | -0.175 |
| RRIRSRPPRLPRPRPRPQRRPRP | 0.21 |
| RRIRSRPPRLPRPRPRPQSWPRP | 0.722 |
| RRIRSRPPRLPRPRPRPQTIPRP | -0.502 |
| RRIRSRPPRLPRPRPRPQWMPRP | -0.155 |
